Experimental data published in patent US20250066503A1, “CELL INJURY INDUCING THERAPEUTIC DRUG FOR USE IN CANCER THERAPY” (CHUGAI SEIYAKU KABUSHIKI KAISHA, priority 2016, published 2025).
Substitutions are numbered along the chain they refer to. Numbers in names are those of the source. Where “and” joins values, the source holds several entries; their conditions need not be identical. Equal values may be shown once.

B1: GPC3_ERY22_CE115 (rCE115H-E22Hh/rCE115L-k0/GL4-E22Hk/H0000-E22L) (bispecific antibody, human IgG1, kappa, L234A L235A, N297A)
heavy: EVQLVETGGSLVQPGKSLKLTCATSGFTFSNAWMHWVRQSPEKQLEWVAQIKAKSNNYATYYAESVKGRFTISRDDSKSNIYLQMNSLKEEDTAVYYCRYVHYGAYYGVDAWGQGTSVTVSSASTKGPSVFPLAPSSKSTSGGTAALGCLVKDYFPEPVTVSWNSGALTSGVHTFPAVLQSSGLYSLSSVVTVPSSSLGTQTYICNVNHKPSNTKVDKKVEPKSCDKTHTCPPCPAPEAAGGPSVFLFPPKPKDTLMISRTPEVTCVVVDVSHEDPEVKFNWYVDGVEVHNAKTKPREEQYASTYRVVSVLTVLHQDWLNGKEYKCKVSNKALPAPIEKTISKAKGQPREPQVYTLPPSRCELTKNQVSLSCAVKGFYPSDIAVEWESNGQPENNYKTTPPVLDSDGSFFLVSKLTVDKSRWQQGNVFSCSVMHEALHNHYTQKSLSLSPDYKDDDDK
light: DVVMTQTPVSMSVSLGGQVSISCRSSQSLVHNNGNTYVSWYIQKPSQSPQLLIYKVSNRFSGISDRFSGSGSGTDFTLKISRVEPDDLGVYYCGQGTQDPYTFGAGTKLELKRTVAAPSVFIFPPSDEQLKSGTASVVCLLNNFYPREAKVQWKVDNALQSGNSQESVTEQDSKDSTYSLSSTLTLSKADYEKHKVYACEVTHQGLSSPVTKSFNRGEC
chain 1: DIVMTQSPLSLPVTPGEPASISCRSSQSLVHSNRNTYLHWYQQKPGQAPRLLIYKVSNRFSGVPDRFSGSGSGTDFTLKISRVEAEDVGVYYCSQNTHVPPTFGQGTKLEIKSSASTKGPSVFPLAPSSKSTSGGTAALGCLVKDYFPEPVTVSWNSGALTSGVHTFPAVLQSSGLYSLSSVVTVPSSSLGTQTYICNVNHKPSNTKVDKKVEPKSCDKTHTCPPCPAPEAAGGPSVFLFPPKPKDTLMISRTPEVTCVVVDVSHEDPEVKFNWYVDGVEVHNAKTKPREEQYASTYRVVSVLTVLHQDWLNGKEYKCKVSNKALPAPIEKTISKAKGQPREPQVCTLPPSRDELTKNQVSLWCLVKGFYPSDIAVEWESNGQPENNYKTTPPVLDSDGSFFLYSKLTVDKSRWQQGNVFSCSVMHEALHNHYTQKSLSLSPHHHHHHHH
chain 2: QVQLVQSGAEVKKPGASVKVSCKASGYTFTDYEMHWIRQPPGQGLEWIGAIDPKTGDTAYSQKFKGRVTLTADKSTSTAYMELSSLTSEDTAVYYCTRFYSYTYWGQGTLVTVSSASVAAPSVFIFPPSDEQLKSGTASVVCLLNNFYPREAKVQWKVDNALQSGNSQESVTEQDSKDSTYSLSSTLTLSKADYEKHKVYACEVTHQGLSSPVTKSFNRGEC
notes: ERY22 format
B2: TR01H084-E2702GsKsc/none-Hi-E2704sE/L0011-k0 (antibody, human IgG4 S228P, kappa, N297A, V domains shown)
VH: QVQLVESGGGVVQPGGSLRLSCAASGFTFSNAWMHWVRQAPGKGLEWVAQIKDKSQNYATYYAESVKGRFTISRADSKNSIYLQMNSLKTEDTAVYYCRYVHYAAGYGVDIWGQGTTVTVSS
VL: DIVMTQSPLSLPVTPGEPASISCRSSQPLVHSNRNTYLHWYQQKPGQAPRLLIYKVSNRFSGVPDRFSGSGSGTDFTLKISRVEAEDVGVYYCGQGTQVPYTFGQGTKLEIKR
notes: one-arm
B3: TR01H082-E2702GsKsc/none-Hi-E2704sE/L0011-k0 (antibody, human IgG4 S228P, kappa, N297A, V domains shown)
VH: B2 VH with V11L, G16R, A75D, I81L, I111A
VL: B2 VL
notes: one-arm
B4: TR01H109-E2702GsKsc/none-Hi-E2704sE/L0011-k0 (antibody, human IgG4 S228P, kappa, N297A, V domains shown)
VH: B2 VH with V11L, G16R, Y62V, A75D, I81L, I111A
VL: B2 VL
notes: one-arm
B5: TR01H113-E2702GsKsc/none-Hi-E2704sE/L0011-k0 (antibody, human IgG4 S228P, kappa, N297A, V domains shown)
VH: B2 VH with Y62V
VL: B2 VL
notes: one-arm
B6: rCE115H-E22Hh/none-Hi-Kn010G3/rCE115L-k0 (antibody, human IgG1, kappa, L234A L235A, N297A, V domains shown)
VH: EVQLVETGGSLVQPGKSLKLTCATSGFTFSNAWMHWVRQSPEKQLEWVAQIKAKSNNYATYYAESVKGRFTISRDDSKSNIYLQMNSLKEEDTAVYYCRYVHYGAYYGVDAWGQGTSVTVSS
VL: DVVMTQTPVSMSVSLGGQVSISCRSSQSLVHNNGNTYVSWYIQKPSQSPQLLIYKVSNRFSGISDRFSGSGSGTDFTLKISRVEPDDLGVYYCGQGTQDPYTFGAGTKLELKR
notes: one-arm; also called rCE115H-E22Hh//-Hi-Kn010G3/rCE115L-k0
B7: H0610-G1dh/none-Hi-Kn010G3/L0015-k0 (antibody, V domains shown)
VH: QVQLVQSGAEVKKPGASVKVSCKASGYTFTDYEMHWIRQPPGQGLEWIGAIDGKTPDTAYSQKFKGRVTLTADKSTSTAYMELSSLTSEDTAVYYCTRFYSYTYWGQGTLVTVSS
VL: DIVMTQSPLSLPVTPGEPASISCRSSQSPVHSNRNTYLHWYQQKPGQAPRLLIYKVSNRFSGVPDRFSGSGSGTDFTLKISRVEAEDVGVYYCGQGTQVPYTFGQGTKLEIK
notes: one-arm
B8: TR01H077-E22Hh/none-Hi-Kn010G3/L0200-k0 (antibody, V domains shown)
VH: QVQLVESGGGLVQPGRSLRLSCAASGFTFSNAWMHWVRQAPGKGLEWVAQIKDKSNNYATYYAESVKGRFTISRADSKNSIYLQMNSLKTEDTAVYYCRYVHYAAAEMVRDDIWGQGTTVTVSS
VL: B7 VL with S25P
notes: one-arm
B9: TR01H040-E22Hh/none-Hi-Kn010G3/TR01L019-k0 (antibody, V domains shown)
VH: B2 VH with V11L, G16R, A104S, G106S, I111A
VL: B7 VL with R24Q, S25A, Q27E, Q42L, A48S, R50Q, G94Y
notes: one-arm
B10: TR01H067-E22Hh/none-Hi-Kn010G3/TR01L019-k0 (antibody, V domains shown)
VH: B2 VH with V11L, G16R, A75D, I81L, G106S, I111A
VL: B7 VL with R24Q, S25A, Q27E, Q42L, A48S, R50Q, G94Y
notes: one-arm
B11: TR01H082-E22Hh/none-Hi-Kn010G3/TR01L020-k0 (antibody, V domains shown)
VH: B2 VH with V11L, G16R, A75D, I81L, I111A
VL: B7 VL with R24Q, S25A, Q27E, L38I, H39Q, Q42L, A48S, R50Q, G94Y
notes: one-arm
B12: GCH054-G1dh/none-Hi-Kn010G3/L0262-k0 (antibody, V domains shown)
VH: B7 VH with K19T, Q43E, K54E, Q62E
VL: B7 VL with S28P, G94A
notes: one-arm
B13: GCH054-G1dh/none-Hi-Kn010G3/L0215-k0 (antibody, V domains shown)
VH: B7 VH with K19T, Q43E, K54E, Q62E
VL: B7 VL with S28P, L38I
notes: one-arm
B14: GCH065-G1dh/none-Hi-Kn010G3/L0262-k0 (antibody, V domains shown)
VH: B7 VH with K19T, Q43E, K54P, Q62E
VL: B7 VL with S28P, G94A
notes: one-arm
B15: GCH065-G1dh/none-Hi-Kn010G3/L0272-k0 (antibody, V domains shown)
VH: B7 VH with K19T, Q43E, K54P, Q62E
VL: B7 VL with S28P, P29L, N35Q
notes: one-arm
B16: GCH060-G1dh/none-Hi-Kn010G3/L0200-k0 (antibody, V domains shown)
VH: B7 VH with K19T, T30E, Q43E, K54E, K65E, S88E
VL: B7 VL with S25P
notes: one-arm
B17: GCH057-G1dh/none-Hi-Kn010G3/L0215-k0 (antibody, V domains shown)
VH: B7 VH with K19T, Q43E, K54E, Q62E, K65E
VL: B7 VL with S28P, L38I
notes: one-arm
B18: GCH054-G1dh/none-Hi-Kn010G3/TR01L018-k0 (antibody, V domains shown)
VH: B7 VH with K19T, Q43E, K54E, Q62E
VL: B7 VL with R24Q, S25A, Q27E, Q42L, A48S, R50Q
notes: one-arm
B19: GCH054-G1dh/none-Hi-Kn010G3/TR01L015-k0 (antibody, V domains shown)
VH: B7 VH with K19T, Q43E, K54E, Q62E
VL: B7 VL with Q42L, A48S, R50Q
notes: one-arm
B20: GCH054-G1dh/none-Hi-Kn010G3/L0249-k0 (antibody, V domains shown)
VH: B7 VH with K19T, Q43E, K54E, Q62E
VL: B7 VL with S25P, L38I, H39Q, G94S
notes: one-arm
B21: GCH055-G1dh/none-Hi-Kn010G3/L0200-k0 (antibody, V domains shown)
VH: B7 VH with K19T, Q43E, K54E, Q62D
VL: B7 VL with S25P
notes: one-arm
B22: GCH055-G1dh/none-Hi-Kn010G3/L0215-k0 (antibody, V domains shown)
VH: B7 VH with K19T, Q43E, K54E, Q62D
VL: B7 VL with S28P, L38I
notes: one-arm
B23: GCH054-G1dh/none-Hi-Kn010G3/L0200-k0 (antibody, V domains shown)
VH: B7 VH with K19T, Q43E, K54E, Q62E
VL: B7 VL with S25P
notes: one-arm
B24: GCH054-G1dh/none-Hi-Kn010G3/TR01L016-k0 (antibody, V domains shown)
VH: B7 VH with K19T, Q43E, K54E, Q62E
VL: B7 VL with Q42L, A48S, R50Q, G94Y
notes: one-arm
B25: GCH054-G1dh/none-Hi-Kn010G3/L0246-k0 (antibody, V domains shown)
VH: B7 VH with K19T, Q43E, K54E, Q62E
VL: B7 VL with L38I, H39Q, G94S
notes: one-arm
B26: GCH094-G1dh/none-Hi-Kn010G3/L0271-k0 (antibody, V domains shown)
VH: B7 VH with K19T, I37V, P40A, Q43E, I48M, K54E, Q62E
VL: B7 VL with S28P, N35Q
notes: one-arm
B27: GCH054-G1dh/none-Hi-Kn010G3/TR01L019-k0 (antibody, V domains shown)
VH: B7 VH with K19T, Q43E, K54E, Q62E
VL: B7 VL with R24Q, S25A, Q27E, Q42L, A48S, R50Q, G94Y
notes: one-arm
B28: GCH094-G1dh/none-Hi-Kn010G3/L0270-k0 (antibody, V domains shown)
VH: B7 VH with K19T, I37V, P40A, Q43E, I48M, K54E, Q62E
VL: B7 VL with P29L, N35Q
notes: one-arm
B29: GCH094-G1dh/none-Hi-Kn010G3/L0246-k0 (antibody, V domains shown)
VH: B7 VH with K19T, I37V, P40A, Q43E, I48M, K54E, Q62E
VL: B7 VL with L38I, H39Q, G94S
notes: one-arm
B30: GCH056-G1dh/none-Hi-Kn010G3/L0262-k0 (antibody, V domains shown)
VH: B7 VH with K19T, Q43E, K54E, K65E
VL: B7 VL with S28P, G94A
notes: one-arm
B31: GCH056-G1dh/none-Hi-Kn010G3/L0215-k0 (antibody, V domains shown)
VH: B7 VH with K19T, Q43E, K54E, K65E
VL: B7 VL with S28P, L38I
notes: one-arm

Tests used:
[1] = biological target: T1, soluble human CD3 epsilon chain (human, UniProt P07766 23-126); assay: SPR
T1 construct: also called CD3ε
T1 sequence (P07766 23-126 limits assumed): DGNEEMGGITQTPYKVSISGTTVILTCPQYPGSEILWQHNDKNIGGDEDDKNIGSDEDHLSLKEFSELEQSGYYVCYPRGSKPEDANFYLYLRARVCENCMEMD

human GPC3 = biological target: T2, human GPC3 (human, UniProt P51654 25-563); assay: SPR
T2 construct: range 25-563; soluble analyte; also called soluble human GPC3; glypican 3
T2 sequence (P51654 25-563 limits assumed): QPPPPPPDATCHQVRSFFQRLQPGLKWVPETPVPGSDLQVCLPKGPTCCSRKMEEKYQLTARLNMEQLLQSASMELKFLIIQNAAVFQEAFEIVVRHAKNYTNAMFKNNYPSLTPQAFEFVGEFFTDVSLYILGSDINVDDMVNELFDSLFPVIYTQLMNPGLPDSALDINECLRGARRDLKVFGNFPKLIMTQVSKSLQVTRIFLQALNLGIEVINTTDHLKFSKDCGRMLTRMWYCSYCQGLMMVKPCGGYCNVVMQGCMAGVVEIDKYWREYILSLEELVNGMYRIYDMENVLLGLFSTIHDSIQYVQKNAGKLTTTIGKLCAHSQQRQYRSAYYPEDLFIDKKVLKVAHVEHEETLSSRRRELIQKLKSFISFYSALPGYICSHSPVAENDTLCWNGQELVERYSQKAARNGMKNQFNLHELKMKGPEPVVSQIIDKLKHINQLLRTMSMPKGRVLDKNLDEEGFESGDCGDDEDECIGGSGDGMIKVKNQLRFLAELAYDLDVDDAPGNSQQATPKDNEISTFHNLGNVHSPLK

Binder | Kd [1] | Kd (human GPC3)
B1 | 93.7 nM | –
B2 | 4.14 nM | –
B3 | 10.1 nM | –
B4 | 16.4 nM | –
B5 | 5.14 nM | –
B6 | 124 nM and 138 nM | –
B7 | – | 1.31 nM
B8 | 6.12 nM | –
B9 | 3.2 nM | –
B10 | 12.1 nM | –
B11 | 106 nM | –
B12 | – | 0.000525 nM
B13 | – | 1.62 nM
B14 | – | 0.0118 nM
B15 | – | 0.393 nM
B16 | – | 1.34 nM

Binder | Kd [1] | Kd (human GPC3)
B17 | – | 1.83 nM
B18 | – | 2.59 nM
B19 | – | 2.45 nM
B20 | – | 0.00361 nM
B21 | – | 1.13 nM
B22 | – | 1.52 nM
B23 | – | 1.18 nM
B24 | – | 0.763 nM
B25 | – | 0.0315 nM
B26 | – | 0.692 nM
B27 | – | 0.871 nM
B28 | – | 3.6 nM
B29 | – | 0.00412 nM
B30 | – | 0.0119 nM
B31 | – | 1.59 nM
